Experimental data taken from patent publication US20060246095A1, “Multiepitope polypeptides for cancer immunotherapy” (HADASIT MEDICAL RESEARCH SERVICES & DEVELOPMENT LTD., priority 2003, published 2006).

Columns and labels:
[1] = tested on: TIL 1383 (A2 restricted tyrosinase epitope 369-377); assay: Recognition assay for peptide presentation by DC (IFN-γ release ELISA), TIL 1383; assay type: cell-based, human
Protocol: (§1) Dendritic cells were isolated from cytopheresis MNCs of melanoma patients with the HLA haplotypes HIA-A*0201 and HLA-DRβ1*0401. DC were generated from plastic adherent PBMCs cultured in RPMI with 10% human AB-serum, L-glutamine, penicillin-streptomycin, supplemented with GM-CSF 1000 IU/ml and IL-4 1000 IU/ml. By day 6, immature DC were harvested for electroporation.
(§2) 2.5-3×10^6 DC were re-suspended in 100 μl nucleofector solution and added to 5 μg of DNA plasmid in 2-mm electrode gap cuvettes. Transfected DC were immediately plated with CM containing GM/IL4 or let mature using TNFα 100 ng/ml and PGE2 1000 ng/ml. GFP-transfected DCs were collected 16-24 hours later for FACS analysis.
DC were pulsed with 1 μg/ml of the relevant peptides at 1×10^6 cells/ml. Stimulants were added after 1 hour incubation without washing the peptide.
TIL 1383 which recognizes the A2 restricted tyrosinase epitope 369-377.
(§3) T cell clones were co-incubated with DC in flat 96-well plate for 24 hours. DC were plated immediately after their transfection or pulsing in 6 separated plates, in the presence of GM CSF and IL-4. 1×10^5 T cells were added to 1×10^5 pulsed or transfected DC. In the longitudinal study, T cell clones were added to the transfected/pulsed DC at the following time points: T0=immediately, +12=after 12 hours, 24, 36, 48 and 72 hours. Supernatants were collected after overnight incubation. Interferon gamma release assay was performed to evaluate T cell stimulation using the ELISA method, results are presented in pg/ml.
(§4) Lactacystin was added to DC at concentrations of 25 μM and 50 μM, 4 hours post transfection. DC were incubated with lactacystin for 70 minutes and then washed twice.
(§5) Responding T cells were added after washing the lactacystin and co-incubated. Supernatents were collected after 20 hours.
For recognition assay of DC epitope presentation, 1×10^5 cells from different T cell clones, that were grown from PBMCs of patients, and were restricted to particular melanoma antigen peptides, were co-incubated with 1×10^5 pulsed or transfected DC, in the presence of GM-CSF and IL-4. T cell clones were added to the transfected/pulsed DC at the following time points: T=0 immediately, T=12, 24, 36, 48, 72 hours. Supernatant was collected after overnight incubation and was subjected to interferon gamma release assay, in order to evaluate the specific T cell activity towards the particular peptide presented by the DC cells.
The results shown in the following tables represent the amount of Interferon-γ (pg/ml) secreted to the culture medium as an index for T cell stimulation.

[2] = tested on: T cell clone BR-B8 (DR4-restricted gp100 epitope 44-59); assay: Recognition assay for peptide presentation by DC (IFN-γ release ELISA), clone BR-B8; assay type: cell-based, human; details: transfected DC, BR-B8
Protocol: as §1, §2
pcDNA-MEP and pcDNA-gp100 were co-transfected to detect Class II antigen presentation as an internal control.
BR-B8 which recognizes the DR4-restricted gp100 epitope 44-59.
as §3, §4, §5
For recognition assay of DC epitope presentation, 1×10^5 cells from different T cell clones, that were grown from PBMCs of patients, and were restricted to particular melanoma antigen peptides, were co-incubated with 1×10^5 pulsed or transfected DC, in the presence of GM-CSF and IL-4. […]

B1: MEP-mel: melanoma multiepitope polypeptide, SEQ ID NO: 2 or 57; in Tables 2-9 delivered by transfecting DC with pcDNA3-MEP-Mel plasmid (protein)
chain: PGTMGSCRKSYYLEPGPVTVRKSYLIMDQVPFSVRKSYLYMDGTMSQVRKSYLAGIGILTVRKSYYLEPGPVTVALLIMDQVPFSVALLYMDGTMSQVALLLAGIGILTVSSLYLEPGPVTVAAYIMDQVPFSVSSLYMDGTMSQVAAYLAGIGILTV
- Interferon-γ secreted to the culture medium ([1]; transfected DC from donor 1, T = 0 hours, TIL 1383): 111 pg/mL
- Interferon-γ secreted to the culture medium ([1]; transfected DC from donor 2, T = 0 hours, TIL 1383): 387 pg/mL
- Interferon-γ secreted to the culture medium ([1]; transfected DC, Lactacystin 0, TIL1383): 229 pg/mL
- Interferon-γ secreted to the culture medium ([1]; transfected DC, Lactacystin 25 μM, TIL1383): 25 pg/mL
- Interferon-γ secreted to the culture medium ([1]; transfected DC, Lactacystin 50 μM, TIL1383): 0 pg/mL
- Interferon-γ secreted to the culture medium ([2]; Lactacystin 0): 188 pg/mL
- Interferon-γ secreted to the culture medium ([2]; Lactacystin 25 μM): 85 pg/mL
- Interferon-γ secreted to the culture medium ([2]; Lactacystin 50 μM): 16 pg/mL
